Data taken from paper doi:10.1101/699132 (bioRxiv, 2020).

Target: the molecule itself
Assay: non-reducing SDS-PAGE and immunoblot

B1: PRDX4, murine islets (enzyme, mouse (endogenous in murine islets), UniProt O08807 41-274, looked up)
chain: LESDERFRTRENECHFYAGGQVYPGEASRVSVADHSLHLSKAKISKPAPYWEGTAVINGEFKELKLTDYRGKYLVFFFYPLDFTFVCPTEIIAFGDRIEEFKSINTEVVACSVDSQFTHLAWINTPRRQGGLGPIRIPLLSDLNHQISKDYGVYLEDSGHTLRGLFIIDDKGVLRQITLNDLPVGRSVDETLRLVQAFQYTDKHGEVCPAGWKPGSETIIPDPAGKLKYFDKLN
  stoichiometry N: 2
